# Results taken from paper PMC10698284, “SLC3A2 N-glycosylation and Golgi remodeling regulate SLC7A amino acid exchangers and stress mitigation” (The Journal of Biological Chemistry, 2023).
# Residue numbers refer to the chain shown, from its start.
# T1: FLAG-SLC3A2 N381D (human, UniProt P08195-1 66-630, N381D, N-glycosylated; N-glycosylation site N381 deleted)
# T1 construct: SLC3A2 (4F2hc, CD98), human, cDNA encoding amino acids 66 to 630 of isoform P08195-1, with N381D; also called N381D site variant; source: HeLa Flp-In T-REx SLC3A2 KO cells, dox-induced from the Flp-In site; in lysate (AP-MS) or on the cell surface, then lysed (Gal3 co-IP); not shown: FLAG, N-terminal, kept
# T1 sequence (looked up): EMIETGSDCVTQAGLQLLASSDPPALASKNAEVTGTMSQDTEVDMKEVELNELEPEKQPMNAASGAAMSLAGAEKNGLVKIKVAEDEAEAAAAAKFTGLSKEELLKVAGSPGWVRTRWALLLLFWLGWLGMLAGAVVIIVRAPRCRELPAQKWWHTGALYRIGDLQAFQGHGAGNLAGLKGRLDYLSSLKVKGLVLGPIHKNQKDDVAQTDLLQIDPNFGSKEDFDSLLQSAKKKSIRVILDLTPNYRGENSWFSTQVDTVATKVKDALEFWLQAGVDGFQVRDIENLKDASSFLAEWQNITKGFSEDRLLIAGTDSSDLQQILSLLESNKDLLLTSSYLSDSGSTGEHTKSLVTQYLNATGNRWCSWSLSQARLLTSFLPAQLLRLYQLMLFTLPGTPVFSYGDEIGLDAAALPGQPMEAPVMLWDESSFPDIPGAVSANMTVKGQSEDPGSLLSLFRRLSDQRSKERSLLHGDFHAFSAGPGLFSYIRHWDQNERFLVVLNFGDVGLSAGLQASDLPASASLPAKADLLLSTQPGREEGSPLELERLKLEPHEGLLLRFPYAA
# T2: FLAG-SLC3A2 N365D (human, UniProt P08195-1 66-630, N365D, N-glycosylated; N-glycosylation site N365 deleted)
# T2 construct: SLC3A2 (4F2hc, CD98), human, cDNA encoding amino acids 66 to 630 of isoform P08195-1, with N365D; also called N365D site variant; source: HeLa Flp-In T-REx SLC3A2 KO cells, dox-induced from the Flp-In site; in lysate (AP-MS) or on the cell surface, then lysed (Gal3 co-IP); not shown: FLAG, N-terminal, kept
# T2 sequence (looked up): T1 sequence (looked up) with N300D, D316N
# B1: SLC7A5 (natural protein)
# chain: not shown
# notes: SLC7A5, human, endogenous in HeLa cells, found by its tryptic peptides; Forms a disulfide-linked heterodimer with SLC3A2; also called SLC7A5 exchanger; source: endogenous, HeLa lysate
# B2: SLC7A11 (natural protein, human (endogenous in HeLa), UniProt Q9UPY5 1-501, looked up)
# chain: MVRKPVVSTISKGGYLQGNVNGRLPSLGNKEPPGQEKVQLKRKVTLLRGVSIIIGTIIGAGIFISPKGVLQNTGSVGMSLTIWTVCGVLSLFGALSYAELGTTIKKSGGHYTYILEVFGPLPAFVRVWVELLIIRPAATAVISLAFGRYILEPFFIQCEIPELAIKLITAVGITVVMVLNSMSVSWSARIQIFLTFCKLTAILIIIVPGVMQLIKGQTQNFKDAFSGRDSSITRLPLAFYYGMYAYAGWFYLNFVTEEVENPEKTIPLAICISMAIVTIGYVLTNVAYFTTINAEELLLSNAVAVTFSERLLGNFSLAVPIFVALSCFGSMNGGVFAVSRLFYVASREGHLPEILSMIHVRKHTPLPAVIVLHPLTMIMLFSGDLDSLLNFLSFARWLFIGLAVAGLIYLRYKCPDMHRPFKVPLFIPALFSFTCLFMVALSLYSDPFSTGIGFVITLTGVPAYYLFIIWDKKPRWFRIMSEKITRTLQIILEVVPEEDKL
# notes: SLC7A11, human, endogenous in HeLa cells, found by its tryptic peptides; Forms a disulfide-linked heterodimer with SLC3A2; source: endogenous, HeLa lysate
# Assays:
# [1] = target: T1, FLAG-SLC3A2 N381D; assay: affinity purification with mass spectrometry; anti-FLAG M2 agarose, 4 h at 4 °C, 1 mg lysate (0.5% NP40, 50 mM HEPES pH 8.0, 100 mM KCl, 1 mM EDTA, 10% glycerol) of HeLa Flp-In T-REx SLC3A2 KO cells with dox-induced FLAG-SLC3A2 WTseq or site variants; on-bead trypsin digest, DDA and SWATH; control: dox-treated SLC3A2 KO cells; in some samples 10 μM fluvastatin or 250 ng/ml swainsonine for the final 24 h; conditions: partners not purified
# [2] = target: T2, FLAG-SLC3A2 N365D; assay: as above; conditions: partners not purified
Binder,percent decrease of the interaction against WTseq [1] [%],percent decrease of the interaction against WTseq [2] [%]
B1,44 ± 14,44 ± 14
B2,67 ± 15,67 ± 15
